These results are taken from patent US10087443B2, “Compositions and methods for modulating neuronal excitability and motor behavior” (ICAHN SCHOOL OF MEDICINE AT MOUNT SINAI, priority 2013, dated 2018).

One data set concerns miR-128-2−/− mice. The experiment in a line: Survival of miR-128-2-/- mice under anticonvulsant treatment (Kaplan-Meier survival curves). The class given is in vivo. The note with it: sodium valproate 0.26% w/v in drinking water, oral, n=11.
Data set [1] deals with Dravet-syndrome mice (Scn1a or Gabrg2 deficient mice). The data set is described as follows: Ectopic miR-128 overexpression in Dravet-syndrome mouse models (Scn1a or Gabrg2 deficient mice). The class given is in vivo. The note with it: supplied into neurons of the hippocampus or thalamus; Dravet-like syndrome mice. From the text: The inventors of the instant disclosure ectopically overexpress miR-128 in mouse models of severe human generalized childhood epilepsy such as the Dravet-syndrome (Scn1a or Gabrg2 deficient mice) to establish the efficacy of miR-128 in averting seizures in these mice. Mice with a loss of Scna1 and Gabrg2 display spontaneous seizures and ataxia beginning in the fourth postnatal week followed by premature death from seizure-related cause. Applicants test the effects of miR-128 overexpression on seizure development and survival in three to four week old Dravet-syndrome mice. The ability of genetic miR-128 overexpression in postnatal forebrain neurons to protect mice against spontaneous seizure development is also tested. Secondly, Applicants test the seizure-suppressing ability of oligonucleotide or AAV-based miR-128 overexpression in different brain regions (striatum, temporal cortex, hippocampus, mediodorsal thalamus) to determine whether there are specific locations that can short-circuit brain-wide seizures due to local miR-128 overexpression. Ectopically supplied miR-128 into the neurons of the hippocam pus or thalamus protects mice suffering from Dravet-like syndrome against spontaneous recurrent seizures and premature death.

Data set [2] deals with primary striatal neuron cultures. The data set is described as follows: Gene expression (TaqMan qRT-PCR) in BDNF-treated primary striatal neuron cultures. The class given is cell-based, mouse. The settings on record: 0.05 ng/ul BDNF, day 10 in vitro; 0, 2, 6 and 24 hours. The protocol: Primary striatal neuron cultures obtained from E18 mouse brain were treated on day 10 in vitro with 0.05 ng/ul brain-derived neurotrophic factor (BDNF) in water. RNA from cultures was prepared at 0, 2, 6 and 24 hours after stimulation and gene expression change were analyzed using the Tagman qRT-PCR assay. […] Data are shown as mean, error bars represent s.e.m., p-value was determined by 2-way ANOVA, FosB treatment 0.0014, time <0.0001. 124a treatment 0.1091, time 0.0861, Arpp21 treatment 0.0064, time 0.0190. miR-128-2 treatment 0.0160, time 0.2097.
Relative expression levels of mature miRNAs and mRNAs were measured by TaqMan assays using total extracted RNA from brain samples, according to manufacturer's protocol (Life Technologies, Carlsbad, Calif.). Purified RNA samples were assayed by qRT-PCR for relative gene expression using pre-designed TaqMan gene expression assays from Applied Biosystems (ABI) as recommended by the manufacture. The following pre-designed TaqMan gene expression assays from Applied Biosystems (ABI) were used: miR-128 (Assay ID 002216), sno135 (Assay ID 001230), miR-124a (Assay ID 001182), Fosb Mm00500401_m1, Fosl2 Mm00484442_m1, Arc Mm00479619_g1, JunB Mm04243546_s1, Darpp-32 Mm00454892_m1, Btg2 Mm00476162_m1, Gadd45g Mm01352550_g1, Dusp1 Mm00457274_g1, Nr4a1 Mm01300401_m1, Jun Mm00495062_s1, Actb Mm00607939_s1, Arpp-21 Mm00473630_m1 (exon spanning probe detects exons that are common to all Arpp-21 isoforms), Arpp21 Mm00473645_m1 (exon spanning probe that specifically detects the long TARPP-isoform of Arpp-21). Cycle counts for miRNA quantification were normalized to snoRNA135 or miR-124a as indicated, and cycle counts for mRNA quantification were normalized to Actb or Gapdh. […] Calculation of standard deviation (SDΔCt=(SDtarget2+SDref2)1/2) and error bars (RQ1=2^(−(ΔΔCt+SDΔΔCt)), and RQ2=2^(−(ΔΔCt−SDΔΔCt))) was performed according to ABI technical literature Part Number 4371095 Rev B.
(In general: Quantitative PCR measures a nucleic acid by following its amplification.)

`CCCC(CCC)C(=O)O` [valproic acid]: the “lethal impact of miR-128 deficiency (lifespan)” value with miR-128-2−/− mice was “prevented”.
“miR-128: microRNA, UCACAGUGAACCGGUCUCUUU (SEQ ID NO: 1) (listed as RNA, chemistry not fully specified)”: the “spontaneous recurrent seizures and premature death” value in data set [1] was “protects”.

B1: BDNF: brain-derived neurotrophic factor, inducer of miR-128 expression (protein, UniProt P23560 19-247, looked up)
Neurotrophic factor BDNF …: APMKEANIRGQGGLAYPGVRTHGTLESVNGPKAGSRGLTSLADTFEHVIEELLDEDQKVRPNEENNKDADLYTSRVMLSSQVPLEPPLLFLLEEYKNYLDAANMSMRVRRHSDPARRGELSVCDSISEWVTAADKKTAVDMSGGTVTVLEKVPVSKGQLKQYFYETKCNPMGYTKEGCRGIDKRHWNSQCRTTQSYVRALTMDSKKRIGWRFIRIDTSCVCTLTIKRGR
In the case of B1, in data set [2], the “expression of immediate early gene FosB” value is recorded as “strong but transient inducer”, the “expression of miR-128” value is listed as “stable increase”, the “expression of miR-128 host gene Arpp21” value is on record as “stable increase” and the “expression of neuron-specific miRNA miR-124a” value was “no effect”.
